Measurements taken from patent publication US20130251728A1 (Regeneron, published 2013).
Numbering of substitutions follows the chain as printed.

B1: H4H1345N (antibody, V domains shown)
VH: QVQLVQSGADVKKPGASVKVSCKVSGHILTDLSMHWVRQPPGKGLEWMAGFDPEEGKIIYAQKFQGRVTMTEDTSTDTAYMELSSLRSGDTAVYYCATSDILTGYYRDYYGLDVWGQGTTLTVSS
VL: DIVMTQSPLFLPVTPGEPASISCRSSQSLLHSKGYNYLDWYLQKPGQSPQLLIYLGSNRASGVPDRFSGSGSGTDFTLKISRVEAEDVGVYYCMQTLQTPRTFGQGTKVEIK
notes: Anti-GCGR antibody from hybridoma; the controls are called isotype-matched hIgG4
B2: H4H1617N (antibody, V domains shown)
VH: B1 VH with P40A, A49G, K57E
VL: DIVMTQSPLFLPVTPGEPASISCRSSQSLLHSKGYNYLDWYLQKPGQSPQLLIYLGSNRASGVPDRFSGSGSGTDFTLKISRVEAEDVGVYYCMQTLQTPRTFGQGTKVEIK
notes: as for B1
B3: H4H1765N (antibody, V domains shown)
VH: EEQLVESGGDLVQPGGSLRLSCAASGFTLSSYEMNWVRQAPGKGLEWVSYISRGGSLIHYTDSVKGRFTISRDNAKNSLYLQMNSLRAEDTAVYYCVRDPAARYHYYYHGMDVWGQGTTVTVSS
VL: DIVMTQSPLSLPVTPGEPASISCRSSQSLLHNNGYNYLDWYLQKPGQSPQLLIYLGSSRASGVPDRFSGSGSGTDFILKISRVEAEDVGVYYCMQALQTPWTFGRGTKVEIK
notes: as for B1
B4: H4H1327P (antibody, V domains shown)
VH: EVQLVESGGGLVQPGGSLRLSCAASGFTFSNYLMNWVRQAPGKGLEWLANIQEDGIEKYYVDSVKGRFTISRDNAKNSLYLQMNSLRAEDTAVYYCAREPSHYDILTGYDYYYGMDVWGQGTTVTVS
VL: DIQMTQSPSSLSASVGDRVTITCRASQGIRNDLGWYQQKPGKAPKRLIYAASSLQSGVPSRFSGSGSGTEFILTVSSLQPEDFATYYCLQYNSNPFTFGPGTKVDIK
notes: also called anti-GCGR (hIgG4) antibody designated H4H1327P
B5: H4H1328P (antibody, V domains shown)
VH: EVQLVESGGALVQPGGSLRLSCTASGFTFSNYDMHWVRQTTGKGLEWISAIDTAGDTYYPGSVKGRFTVSRENAKNSFYLQMNSLRAGDTAVYYCAREGKYYDILTGDYHYYGMDVWGQGTTVTVS
VL: B4 VL with A51T, I72T, V75I, Y91H, N94Y, F96L, P100G, V104L, D105E
notes: Fully human anti-GCGR antibody; the controls are called isotype-matched hIgG4

target: human GCGR (full-length, on HEK293 reporter cells) (human, UniProt P47871 27-477); assay: cell-based or functional assay

IC50, inhibition of 100 pM GCG-stimulated luciferase activity, hGCGR reporter cells [nM]	Binder
2.22	B1
1.25	B2
12.8	B3
0.39	B4
0.24	B5

Target: T1, monkey (Macaca fascicularis) GCGR (full-length, on HEK293 reporter cells) (monkey (Macaca fascicularis), UniProt P47871 26-477 (human entry))
T1 chain: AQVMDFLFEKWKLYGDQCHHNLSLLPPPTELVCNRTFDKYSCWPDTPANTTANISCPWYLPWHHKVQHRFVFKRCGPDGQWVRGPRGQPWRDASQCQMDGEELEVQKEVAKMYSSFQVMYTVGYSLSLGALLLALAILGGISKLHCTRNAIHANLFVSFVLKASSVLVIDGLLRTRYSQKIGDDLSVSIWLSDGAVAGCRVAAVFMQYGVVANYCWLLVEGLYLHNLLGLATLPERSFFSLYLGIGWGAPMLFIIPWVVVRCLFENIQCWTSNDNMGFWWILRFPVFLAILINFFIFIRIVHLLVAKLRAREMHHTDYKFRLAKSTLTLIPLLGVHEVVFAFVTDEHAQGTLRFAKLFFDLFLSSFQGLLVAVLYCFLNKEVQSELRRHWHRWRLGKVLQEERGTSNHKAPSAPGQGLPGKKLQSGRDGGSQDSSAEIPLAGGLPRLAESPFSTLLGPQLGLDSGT
Assay: cell-based or functional assay

IC50, inhibition of 100 pM GCG-stimulated luciferase activity, mfGCGR reporter cells [nM]	Binder
3.86	B1
4.24	B2
75.2	B3
2.56	B4
2.73	B5

target: mouse GCGR (full-length, on HEK293 reporter cells) (mouse, UniProt Q61606 27-485); assay: cell-based or functional assay
Sequence (Q61606 27-485 limits assumed): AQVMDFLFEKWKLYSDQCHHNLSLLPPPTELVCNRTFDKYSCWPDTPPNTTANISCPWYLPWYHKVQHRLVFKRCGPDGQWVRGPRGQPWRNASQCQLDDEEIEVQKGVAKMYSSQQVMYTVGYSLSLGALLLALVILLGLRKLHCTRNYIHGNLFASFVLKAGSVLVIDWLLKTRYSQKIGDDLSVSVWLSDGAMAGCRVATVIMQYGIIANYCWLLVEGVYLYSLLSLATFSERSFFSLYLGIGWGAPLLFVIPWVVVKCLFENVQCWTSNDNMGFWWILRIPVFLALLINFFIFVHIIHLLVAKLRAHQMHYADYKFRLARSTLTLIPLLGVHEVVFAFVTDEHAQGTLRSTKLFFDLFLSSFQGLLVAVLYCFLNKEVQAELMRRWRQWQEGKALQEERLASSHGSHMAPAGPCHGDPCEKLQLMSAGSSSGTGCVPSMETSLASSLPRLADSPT

IC50, inhibition of 100 pM GCG-stimulated luciferase activity, mGCGR reporter cells [nM]	Binder
1.04	B4
1.26	B5

target: rat GCGR (full-length, on transiently transfected HEK293 reporter cells) (rat, UniProt P30082 27-485); assay: cell-based or functional assay
Sequence (P30082 27-485 limits assumed): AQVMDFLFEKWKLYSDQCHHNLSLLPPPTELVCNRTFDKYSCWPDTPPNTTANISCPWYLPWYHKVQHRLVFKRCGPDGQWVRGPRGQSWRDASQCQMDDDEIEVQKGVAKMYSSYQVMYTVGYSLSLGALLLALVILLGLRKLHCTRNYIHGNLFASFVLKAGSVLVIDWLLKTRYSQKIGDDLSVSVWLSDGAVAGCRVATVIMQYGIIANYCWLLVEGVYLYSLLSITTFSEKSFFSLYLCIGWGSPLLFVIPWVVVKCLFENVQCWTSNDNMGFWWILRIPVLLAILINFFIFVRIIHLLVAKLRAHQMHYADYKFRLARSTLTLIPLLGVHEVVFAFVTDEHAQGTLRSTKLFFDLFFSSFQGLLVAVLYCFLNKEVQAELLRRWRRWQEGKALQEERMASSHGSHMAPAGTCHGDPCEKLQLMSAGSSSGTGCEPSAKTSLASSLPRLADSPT

IC50, inhibition of 100 pM GCG-stimulated luciferase activity, rat GCGR reporter cells [nM]	Binder
8.07	B1
3.66	B2
0.88	B4
0.93	B5

Target: T2, hGCGR-mmh (human)
T2 construct: also called REGN547; monovalent hGCGR
T2 chain: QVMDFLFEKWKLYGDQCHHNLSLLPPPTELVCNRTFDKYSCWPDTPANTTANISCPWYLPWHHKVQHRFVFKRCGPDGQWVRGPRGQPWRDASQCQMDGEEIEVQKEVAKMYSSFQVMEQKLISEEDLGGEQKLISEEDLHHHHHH
Assay: SPR Biacore T100, 25C, mAb captured, antigen flowed
Method: (§1) Measurements were conducted on a T100 Biacore instrument. Antibodies were captured onto the Biacore sensor chip surface via a covalently-linked anti-human kappa antibody capture surface, and the soluble GCGR proteins were applied to the surface either in a monovalent (hGCGR expressed with a myc-myc-hexa-histidine C-terminal tag) or bivalent (hGCGR and MfGCGR expressed with an N-terminal Fc fusion) format.
(§2) Binding dissociation equilibrium constants and dissociative half-lives were calculated from the kinetic rate constants as: KD=kd/kₐ; t_{1/2}=(In2/kd).

Kd [nM]	T½ [h]	koff [s⁻¹]	kon [M⁻¹ s⁻¹]	Binder
0.431	0.567	0.000344	798000	B1
0.187	0.967	0.000199	1.07e+06	B2
0.093	6.32	3.05e-05	326000	B3
0.369	0.55	0.000352	952000	B4
2.06	0.0833	0.00212	1.03e+06	B5

target: T3, hGCGR-hFc (human); assay: as above
T3 construct: also called REGN316
Method: as §1, §2

Kd [nM]	T½ [h]	koff [s⁻¹]	kon [M⁻¹ s⁻¹]	Binder
0.0724	3.37	5.72e-05	790000	B1
0.0389	6.05	3.18e-05	818000	B2
0.0122	38.9	4.95e-06	410000	B3
0.0338	4.7	4.1e-05	1.21e+06	B4
0.201	0.85	0.000226	1.13e+06	B5

target: T4, mfGCGR-hFc (cynomolgus monkey (Macaca fascicularis)); assay: as above
T4 construct: also called mfGCGR-N-terminal hFc
Method: as §1, §2

T4 sequence (chain, as listed by the source limits assumed): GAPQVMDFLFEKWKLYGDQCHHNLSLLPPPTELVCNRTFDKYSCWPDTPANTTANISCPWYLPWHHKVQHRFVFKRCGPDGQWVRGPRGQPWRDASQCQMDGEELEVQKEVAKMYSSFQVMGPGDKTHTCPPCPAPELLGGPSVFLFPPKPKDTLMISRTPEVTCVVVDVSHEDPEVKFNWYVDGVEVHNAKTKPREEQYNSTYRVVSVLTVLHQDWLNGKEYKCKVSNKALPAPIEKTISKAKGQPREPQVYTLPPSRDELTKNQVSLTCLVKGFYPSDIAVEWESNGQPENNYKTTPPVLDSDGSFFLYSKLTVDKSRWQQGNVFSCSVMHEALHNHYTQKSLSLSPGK

Kd [nM]	T½ [h]	koff [s⁻¹]	kon [M⁻¹ s⁻¹]	Binder
0.0254	7.95	2.42e-05	953000	B1
0.011	13.9	1.38e-05	1.26e+06	B2
≤ 0.00156	192	≤ 1e-06	643000	B3
0.00902	13.4	1.44e-05	1.6e+06	B4
0.0529	2.28	8.46e-05	1.6e+06	B5

Target: T2, hGCGR-mmh
Assay: SPR Biacore T100, 37C, mAb captured, antigen flowed
Method: as §1, §2

Kd [nM]	T½ [h]	koff [s⁻¹]	kon [M⁻¹ s⁻¹]	Binder
2.12	0.1	0.00197	928000	B1
0.943	0.167	0.00113	1.2e+06	B2
0.252	1.73	0.000111	441000	B3
1.35	0.1	0.002	1.48e+06	B4
6.67	0.0167	0.0108	1.61e+06	B5

target: T3, hGCGR-hFc; assay: as above
Method: as §1, §2

Kd [nM]	T½ [h]	koff [s⁻¹]	kon [M⁻¹ s⁻¹]	Binder
0.324	0.617	0.000309	952000	B1
0.181	0.9	0.000214	1.18e+06	B2
0.0537	5.4	3.57e-05	664000	B3
0.157	0.833	0.000232	1.48e+06	B4
0.124	1	0.000192	1.55e+06	B5

target: T4, mfGCGR-hFc; assay: as above
Method: as §1, §2

Kd [nM]	T½ [h]	koff [s⁻¹]	kon [M⁻¹ s⁻¹]	Binder
0.101	1.52	0.000128	1.27e+06	B1
0.0586	2.22	8.72e-05	1.49e+06	B2
0.0164	13	1.48e-05	904000	B3
0.0357	2.42	7.94e-05	2.22e+06	B4
0.0353	2.68	7.17e-05	2.03e+06	B5
